According to US20060193821, “Aptamers to the human IL-12 cytokine family and their use as autoimmune disease therapeutics” (published 2006):

B1: AMX91-G11 (ssRNA)
RNA: GGGAAAAGCGAAUCAUACACAAGACUUAACAGUGCGGGGCGCAGUGUAUAGAUCCGCAAUGUGUGCUCCGCCAGAGACCAACCGAGAA
modifications: 2'-F C and U, 2'-OH A and G
B2: AMX91-H7 (ssRNA)
RNA: GGGAAAAGCGAAUCAUACACAAGACUUAUCGCCUCAAGGGGGGUAAUAAACCCAGCGUGUGCAUGCUCCGCCAGAGACCAACCGAGAA
modifications: 2'-F C,U
B3: AMX86-G10 (ssRNA)
RNA: GGGAAAAGCGAAUCAUACACAAGAGUCAUGGCUUACAAUUGAAACAAGAGCUCGCGUGACACAUGCUCCGCCAGAGACCAACCGAGAA
modifications: 2'-F C and U, 2'-OH A and G
B4: AMX91-F11 (ssRNA)
RNA: GGGAAAAGCGAAUCAUACACAAGACGCGUCAGGUCCACGCUGAAAUUUAUUUUCGGCAGUGUAAGCUCCGCCAGAGACCAACCGAGAA
modifications: 2'-F C and U, 2'-OH A and G
B5: AMX84-E12 (ssRNA)
RNA: GGGAAAAGCGAAUCAUACACAAGAAGUUUUUGUGCUCUGAGUACUCAGCGUCCGUAAGGGAUAUGCUCCGCCAGAGACCAACCGAGAA
modifications: 2'-F C and U, 2'-OH A and G
B6: AMX91-D9 (ssRNA)
RNA: GGGAAAAGCGAAUCAUACACAAGAGUGUAUUACCCCCAACCCAGGGGGACCAUUCGCGUAACAAGCUCCGCCAGAGACCAACCGAGAA
modifications: 2'-F C,U
B7: AMX91-B8 (ssRNA)
RNA: GGGAAAAGCGAAUCAUACACAAGAAUCCUGGCUUCGCAUAGUGUAUGGGUAGUACGACAGCGCGUGCUCCGCCAGAGACCAACCGAGAA
modifications: 2'-F C and U, 2'-OH A and G
B8: AMX91-G9 (ssRNA)
RNA: GGGAAAAGCGAAUCAUACACAAGAAUUGUGCUUACAACUUUCGUUGUACCGACGUGUCAGUUAUGCUCCGCCAGAGACCAACCGAGAA
modifications: 2'-F C,U
B9: AMX91-H8 (ssRNA)
RNA: GGGAAAAGCGAAUCAUACACAAGAACGCAUAGUCGGAUUUACCGAUCAUUCUGUGCCUUCGUGACGCUCCGCCAGAGACCAACCGAGAA
modifications: 2'-F C and U, 2'-OH A and G
B10: AMX86-D6 (ssRNA)
RNA: GGGAAAAGCGAAUCAUACACAAGAUUAGGCGUCGUGACAAUAACUGGUCCACGAGCAUGUCAGUGCUCCGCCAGAGACCAACCGAGAA
modifications: 2'-F C and U, 2'-OH A and G
B11: AMX91-A6 (ssRNA)
RNA: GGGAAAAGCGAAUCAUACACAAGAUUGGCAAUGUGACCUUCAACCCUUUUCCCGAUGAACAGUGGCUCCGCCAGAGACCAACCGAGAA
modifications: 2'-F C and U, 2'-OH A and G
B12: AMX84-C11 (ssRNA)
RNA: GGGAAAAGCGAAUCAUACACAAGAAUGGUCGGAAUCUCUGGCGCCACGCUGAGUAUAGACGGAAGCUCCGCCAGAGACCAACCGAGAA
modifications: 2'-F C and U, 2'-OH A and G
B13: AMX91-E3 (ssRNA)
RNA: GGGAAAAGCGAAUCAUACACAAGAUUACUCCGUUAGUGUCAGUUGACGGAGGGAGCGUACUAUUGCUCCGCCAGAGACCAACCGAGAA
modifications: 2'-F C and U, 2'-OH A and G
B14: AMX91-C12 (ssRNA)
RNA: GGGAAAAGCGAAUCAUACACAAGACGAUAGUAUGACCUUUUGAAAGGCUUCCCGAGCGGUGUUCGCUCCGCCAGAGACCAACCGAGAA
modifications: 2'-F C,U
B15: AMX86-D5 (ssRNA)
RNA: GGGAAAAGCGAAUCAUACACAAGAGAGGUAUGUGGUUUUGCGGAGCAACUCGUGUCAGCGGUCAGCUCCGCCAGAGACCAACCGAGAA
modifications: 2'-F C and U, 2'-OH A and G
B16: AMX84-A11 (ssRNA)
RNA: B15 RNA
modifications: 2'-F C and U, 2'-OH A and G
B17: AMX86-C5 (ssRNA)
RNA: GGGAAAAGCGAAUCAUACACAAGAGUUUUAUGUGGGUCCCGAUGAUUAACUUUAUUGGCGCAUUGCUCCGCCAGAGACCAACCGAGAA
modifications: 2'-F C and U, 2'-OH A and G
B18: AMX91-G1 (ssRNA)
RNA: GGGAAAAGCGAAUCAUACACAAGAUAUGUGCCUGGGAUGGACGACAUCCCCUGUCUAAGGAUAUGCUCCGCCAGAGACCAACCGAGAA
modifications: 2'-F C and U, 2'-OH A and G
B19: AMX91-B5 (ssRNA)
RNA: GGGAAAAGCGAAUCAUACACAAGACAGUGUAUGAGGAAGAUUACUUCCAUUCCUGAGCGGUUUUCGCUCCGCCAGAGACCAACCGAGAA
modifications: 2'-F C and U, 2'-OH A and G
B20: AMX86-B10 (ssRNA)
RNA: GGGAAAAGCGAAUCAUACACAAGAGAACGAGUAUAUUUGCGCUGGCGGAGAAGUCUCUCGAAGGGAGCUCCGCCAGAGACCAACCGAGAA
modifications: 2'-F C and U, 2'-OH A and G
B21: ARC1167 (mixed)
RNA: ACAGGCAAGUAAUUGGGGAGUGCGGGCGGGGUGU
modifications: deoxy A,G; 2'-OMe C,U; PS 28-29 [PS linkage 28-29; 2'-OMe C,U at 2,6,10,13,14,21,23,27,32,34; all A,G 2'-deoxy]
B22: ARC1166 (mixed)
RNA: B21 RNA
modifications: deoxy A,G; 2'-OMe C,U; PS 27-28 [PS between 27-28; 2'-OMe C,U at 2,6,10,13,14,21,23,27,32,34; deoxy A,G at all other positions]
B23: ARC1155 (mixed)
RNA: B21 RNA
modifications: deoxy A,G; 2'-OMe C,U; PS 10-11 [PS between 10-11; 2'-OMe C,U at 2,6,10,13,14,21,23,27,32,34; deoxy A,G at all other positions]
B24: ARC1158 (mixed)
RNA: B21 RNA
modifications: deoxy A,G; 2'-OMe C,U; PS 13-14 [PS between 13-14; 2'-OMe C,U at 2,6,10,13,14,21,23,27,32,34; deoxy A,G at all other positions]
B25: ARC1151 (mixed)
RNA: B21 RNA
modifications: deoxy A,G; 2'-OMe C,U; PS 6-7
B26: ARC1152 (mixed)
RNA: B21 RNA
modifications: deoxy A,G; 2'-OMe C,U; PS 7-8
B27: ARC1156 (mixed)
RNA: B21 RNA
modifications: deoxy A,G; 2'-OMe C,U; PS 11-12 [PS between 11-12; 2'-OMe C,U at 2,6,10,13,14,21,23,27,32,34; deoxy A,G at all other positions]
B28: ARC1153 (mixed)
RNA: B21 RNA
modifications: deoxy A,G; 2'-OMe C,U; PS 8-9
B29: ARC1165 (mixed)
RNA: B21 RNA
modifications: deoxy A,G; 2'-OMe C,U; PS 26-27 [PS between 26-27; 2'-OMe C,U at 2,6,10,13,14,21,23,27,32,34; deoxy A,G at all other positions]

Experiments:
[1] = target: T1, IL-23 (human, p19/p40 heterodimer) (Homo sapiens, UniProt Q9NPF7;P29460 SEQ:20-189,SEQ:23-328); assay: cell_activity; TransAM STAT3, PHA blasts; settings: tags: R&D Systems
T1 sequence (Q9NPF7 20-189, chain 1 of 2): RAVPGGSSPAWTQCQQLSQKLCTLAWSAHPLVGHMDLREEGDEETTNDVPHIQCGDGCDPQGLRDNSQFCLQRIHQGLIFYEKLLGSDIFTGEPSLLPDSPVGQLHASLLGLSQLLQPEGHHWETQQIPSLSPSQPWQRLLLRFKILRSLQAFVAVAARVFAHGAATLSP
T1 sequence (P29460 23-328, chain 2 of 2): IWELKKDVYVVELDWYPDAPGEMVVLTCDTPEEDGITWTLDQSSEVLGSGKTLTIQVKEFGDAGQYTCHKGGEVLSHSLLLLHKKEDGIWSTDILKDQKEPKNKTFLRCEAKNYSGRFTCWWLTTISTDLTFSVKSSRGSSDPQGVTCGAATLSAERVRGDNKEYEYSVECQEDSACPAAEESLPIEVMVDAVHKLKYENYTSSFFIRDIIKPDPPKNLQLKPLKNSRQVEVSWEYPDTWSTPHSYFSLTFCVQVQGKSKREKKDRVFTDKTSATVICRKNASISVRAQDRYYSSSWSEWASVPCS
Experimental: (§1) In summary, the cell-based assay was conducted by isolating the peripheral blood mononuclear cells (PBMCs) from whole blood using a Histopaque gradient (Sigma, St. Louis, Mo.). The PBMCs were cultured for 3 to 5 days at 37° C./5% CO₂ in Peripheral Blood Medium (Sigma) which contains PHA, supplemented with IL-2 (100 units/mL) (R&D Systems, Minneapolis, Minn.), to generate PHA Blasts. To test IL-23 aptamers, the PHA Blasts were washed twice with 1×PBS, then serum starved for four hours in RPMI, 0.20% FBS. After serum starvation, approximately 2 million cells were aliquotted into appropriately labeled eppendorf tubes. hIL-23 at a final constant concentration of 3 ng/mL (R&D Systems, Minneapolis, Minn.) was combined with a dilution series of various IL-23 aptamers as described in Example 1, and the cytokine/aptamer mixture was added to the aliquotted cells in a final volume of 100 μl and incubated at 37° C. for 10-12 minutes. The incubation reaction was stopped by adding 1 mL of ice-cold PBS with 1.5 mM Na₃VO₄. Cell lysates were made using the lysis buffer provided by the TransAM™ STAT 3 assay following the manufacturer's instructions. FIG. 20 depicts a flow summary of the protocol used for the cell based assay.
(§2) Full length clones from the rRfY selection described in Example 1A, and select minimized rRfY clones that were described in Example 2A. 1, were tested using the TransAM™ STAT3 activation assay. Table 34 summarizes the cell based assay data for IL-23 full length aptamers generated from the rRfY selections described in Example 1A. 1, each compared to the activity of their respective parent (full length) clone.

[2] = target: IL-12 (human, p35/p40 heterodimer) (Homo sapiens, UniProt P29459;P29460 SEQ:57-253,SEQ:23-328); assay: filter; no significant binding
IL-12 (human, p35/p40 heterodimer), sequence (P29459 23-219, chain 1 of 2): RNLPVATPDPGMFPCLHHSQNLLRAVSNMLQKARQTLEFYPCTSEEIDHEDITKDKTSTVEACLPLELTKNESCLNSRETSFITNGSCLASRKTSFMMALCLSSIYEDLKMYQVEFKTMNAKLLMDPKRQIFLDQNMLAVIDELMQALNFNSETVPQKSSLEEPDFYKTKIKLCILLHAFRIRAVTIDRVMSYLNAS
IL-12 (human, p35/p40 heterodimer), sequence (P29460 23-328, chain 2 of 2): as the sequence (P29460 23-328, chain 2 of 2) above

[3] = target: T1, IL-23 (human, p19/p40 heterodimer); assay: cell_activity; TransAM STAT3; settings: tags: R&D Systems, carrier free
Experimental: as §1, §2

[4] = target: T1, IL-23 (human, p19/p40 heterodimer); assay: filter; SHMCK, tRNA; settings: tags: R&D Systems, carrier free
Experimental: Monitoring Progress of rRfY Selection. Dot blot binding assays were performed throughout the selections to monitor the protein binding affinity of the pools. Trace ³²P-labeled RNA was combined with a dilution series of h-IL-23 and incubated at room temperature for 30 minutes in 1×SHMCK (20 mM Hepes, 120 mM NaCl, 5 mM KCl, 1 mM MgCl₂, 1 mM CaCl₂, pH 7.4) plus 0.1 mg/mL tRNA for a final volume of 20 μL. The binding reactions were analyzed by nitrocellulose filtration using a Minifold I dot-blot, 96-well vacuum filtration manifold (Schleicher & Schuell, Keene, N.H.). A three-layer filtration medium was used, consisting (from top to bottom) of Protran nitrocellulose (Schleicher & Schuell), Hybond-P nylon (Amersham Biosciences) and GB002 gel blot paper (Schleicher & Schuell). RNA that is bound to protein is captured on the nitrocellulose filter, whereas the non-protein bound RNA is captured on the nylon filter. The gel blot paper was included simply as a supporting medium for the other filters. Following filtration, the filter layers were separated, dried and exposed on a phosphor screen (Amersham Biosciences, Piscataway, N.J.) and quantified using a Storm 860 Phosphorimager® blot imaging system (Amersham Biosciences).
When a significant positive ratio of binding of RNA in the presence of h-IL-23 versus in the absence of h-IL-23 was seen, the pools were cloned using a TOPO TA cloning kit (Invitrogen, Carlsbad, Calif.) according to the manufacturer's instructions. For the h-IL-23 and X-IL-23 selections, the Round 8 pool templates were cloned, and 32 individual clones from each selections were assayed in a 1-point dot blot screen (+/−75 nM h-IL-23, as well as a separate screen at +/−75 nM h-IL-12). For the PN-IL-23 selection, the Round 10 pool was cloned and sequenced, and 8 unique clones were assayed for protein binding in a 1-point dot blot screen (+/−200 nM h-IL-23 and a separate screen at +/−200 nM h-IL-12). Subsequently, the Round 10 PN-IL-23 pool was re-cloned for further sequences, as well as the R12 PN-IL-23 pool, and the clones were assayed for protein binding in a 1 point do blot screen (+/−100 nM h-IL-23 or +/−200 nM h-IL-12).

[5] = target: T1, IL-23 (human, p19/p40 heterodimer); assay: filter; -tRNA; settings: tags: R&D Systems, carrier free
Experimental: These molecules were gel purified and assayed for IL-23 binding using the dot blot assay as described above and compared to each other and to the parent molecule, ARC979. An 8 point IL-23 titration (0 nM to 300 nM, 3 fold serial dilutions) was used in the binding assay.

Binder	IC50 [1]	Kd [5]	also measured
B1	3000 nM		
B2			binding result [2]: no binding; IC50 [3]: 50 nM; Kd [4]: 71 nM
B3	~2000 nM		
B4	5000 nM		
B5	> 1000 nM		
B6			binding result [2]: no binding; IC50 [3]: 150 nM; Kd [4]: 44.6 nM
B7	450 nM		
B8			binding result [2]: no binding; IC50 [3]: 50 nM; Kd [4]: 33 nM
B9	3000 nM		
B10	> 5000 nM		
B11	3000 nM		
B12	800 nM		
B13	> 5000 nM		
B14			binding result [2]: no binding; IC50 [3]: 50 nM; Kd [4]: 30.7 nM
B15	> 5000 nM		
B16	> 5000 nM		
B17	3000 nM		
B18	2000 nM		
B19	1000 nM		
B20	800 nM		
B21		107 nM	
B22		132 nM	
B23		168 nM	
B24		192 nM	
B25		142 nM	
B26		232 nM	
B27		369 nM	
B28		174 nM	
B29		55 nM	
